Paper PMC12005989, “Purification, identification, and in silico screening of a multifunctional octapeptide from semen armeniacae glutelin-2 hydrolysates: restraining mechanisms to Keap1 and ACE, stability, and ferrous-transport efficiency” (Frontiers in Nutrition, 2025)
Ends that are not written are not given here.

Tests used:
[1] = target: T1, angiotensin-I-converting enzyme (ACE) (Oryctolagus cuniculus, UniProt P12822); assay: ACE-inhibitory kinetics, Lineweaver–Burk plot; assay type: biochemical, Rabbit; conditions: inhibitor 0.011–0.055 mmol/L, HHL 0.13–1.32 mmol/L, Vmax not altered, Km increased
T1 construct: Rabbit lungs ACE (0.1 U) was obtained from Sigma-Aldrich (St. Louis, MO, USA); purchased Sigma-Aldrich (St. Louis, MO, USA); host or cells: rabbit lung (tissue-derived)
T1 sequence (P12822 34-1310): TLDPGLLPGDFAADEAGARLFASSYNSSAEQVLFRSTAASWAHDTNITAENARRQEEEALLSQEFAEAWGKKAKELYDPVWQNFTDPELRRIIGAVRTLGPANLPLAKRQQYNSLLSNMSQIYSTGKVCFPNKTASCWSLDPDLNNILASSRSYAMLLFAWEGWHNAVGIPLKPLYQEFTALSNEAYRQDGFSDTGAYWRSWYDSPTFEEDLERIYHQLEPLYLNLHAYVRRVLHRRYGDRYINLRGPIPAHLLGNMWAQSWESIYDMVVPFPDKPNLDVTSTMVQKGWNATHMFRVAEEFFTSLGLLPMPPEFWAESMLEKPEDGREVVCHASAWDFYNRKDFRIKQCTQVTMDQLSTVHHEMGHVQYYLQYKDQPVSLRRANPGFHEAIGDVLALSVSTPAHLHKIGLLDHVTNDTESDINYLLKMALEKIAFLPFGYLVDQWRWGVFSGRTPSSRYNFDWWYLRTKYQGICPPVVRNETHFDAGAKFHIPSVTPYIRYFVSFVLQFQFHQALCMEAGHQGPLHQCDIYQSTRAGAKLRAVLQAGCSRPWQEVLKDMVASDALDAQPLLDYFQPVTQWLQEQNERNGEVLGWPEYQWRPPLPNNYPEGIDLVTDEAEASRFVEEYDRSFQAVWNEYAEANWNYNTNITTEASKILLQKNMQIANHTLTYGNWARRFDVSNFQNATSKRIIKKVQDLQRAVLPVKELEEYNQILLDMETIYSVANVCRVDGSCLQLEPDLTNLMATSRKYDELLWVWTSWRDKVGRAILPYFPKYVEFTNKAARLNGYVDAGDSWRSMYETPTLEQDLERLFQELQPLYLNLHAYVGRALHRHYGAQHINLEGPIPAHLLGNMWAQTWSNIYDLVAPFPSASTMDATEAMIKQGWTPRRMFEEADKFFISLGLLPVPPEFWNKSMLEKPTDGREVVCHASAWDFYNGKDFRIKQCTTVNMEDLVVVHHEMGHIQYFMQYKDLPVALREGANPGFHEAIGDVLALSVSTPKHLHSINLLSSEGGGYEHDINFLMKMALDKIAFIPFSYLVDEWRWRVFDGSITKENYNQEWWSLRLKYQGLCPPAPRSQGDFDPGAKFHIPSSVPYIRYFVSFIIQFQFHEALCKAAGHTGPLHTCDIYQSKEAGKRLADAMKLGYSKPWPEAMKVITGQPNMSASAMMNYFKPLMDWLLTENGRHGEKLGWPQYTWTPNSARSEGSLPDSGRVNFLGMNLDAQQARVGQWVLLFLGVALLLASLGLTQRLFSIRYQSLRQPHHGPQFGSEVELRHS
Text: The hippuric acid method ([50]) was used to measure the samples’ restraining capacity against ACE citing the same procedures from Zheng et al. ([34]). The absorbance of the reaction solution at 228 nm was the hippuric acid content and was proportional to ACE activity; therefore, the restraining capacity of samples toward ACE was defined as the percentage reduction in the absorption at 228 nm between the control and sample groups. In addition, the ACE-inhibitory kinetic by BAG-2H peptides (0.011–0.055 mmol/L) was investigated employing Lineweaver–Burk plot ([36]).

Caco-2 cell monolayers = assay: Ferrous transport across Caco-2 cell monolayers; assay type: in vitro ADME; conditions: Caco-2 transwell, apical to basolateral, chelate 320 μg/mL, 37°C, o-phenanthroline, p < 0.05
Protocol: In a 24-well transwell culture plate, Caco-2 cells (0.75 × 10^6 cells/cm^2) were cultivated by Dulbecco’s modified Eagle’s medium that contained fetal bovine serum (20 g/L), streptomycin (1 μg/μL), penicillin (1 μg/μL), and neomycin (1 μg/μL) and refreshed every 48 h. After 12–14 d of incubation at 5% CO2 and 37°C, the transepithelial electrical resistance was more than 400 Ω·cm^2 and a monolayer Caco-2 cell mode was formed. Afterward, the medium was removed, and Hank’s Balanced Salt Solution was added. After 30 min of cultivation at 5% CO2 and 37°C, Hank’s Balanced Salt Solution was removed from the apical side and BAG-2H peptide-ferrous chelates (320 μg/mL) were added and then cultivated at 5% CO2 and 37°C for 150 min. Every 30 min, the o-phenanthroline method was used to quantify the ferrous amounts of cultivate solution in the basolateral side ([38]).

PVDFAGFY-ferrous chelate: ferrous chelate of PVDFAGFY prepared with ferrous chloride (also: ferrous chelate)
ACE-inhibitory mode [1]: competitive ACE inhibitor
Ferrous transmembrane absorption across Caco-2 monolayer compared with ferrous chloride (Caco-2 cell monolayers; FeCl2 0.3 mg/mL, HBSS, 150 min): higher than that of ferrous chloride
Ferrous transport across Caco-2 monolayer compared with ferrous lactate, 120–150 min (Caco-2 cell monolayers; ferrous lactate 0.3 mg/mL): better at transporting iron across the monolayer of Caco-2 cells than ferrous lactate
